Experiment: label from the status in PepcDB records

Row | Sequence | protein production
1 | MTTEVKQSPRERLLEAAAALTYRDGVGIGVEALCKAAGVSKRSMYQLFESKDELLAASLKERSAAFVAKALPPADDGRSPRERILYVFERVESQAGAPDFQGCRYLAVQIELKDQAHPASRVAYQIKADLMAFFRSEAERGGASDPDLLARQLILVFDGASARAGIGADNLTGLIVPTLTTLLDAADMH | not failed
2 | MTTFSHSSTTPSVSVTTASGNNQSQLVATPVPDEQRISFWPQHFGLIPQWVTLEPRVFGWMDRLCEDYCGGIWNLYTLNNGGAFIAPEPDEDDGETWILFNAMNGNRAEMSPEAAGIAACLMTYSHHACRTECYAMTVHYYRLRDYALQHPECSAIMRIID | failed
3 | MTTGDGRSRLLAAATRLIRTQGFAATSVEAICREAGVTKGAFFHHFPSKEALGVAAAEAWSDVTGRLFAEAPYHRPADPLDRVLAYIDFRRALVAGEIADYTCLVGTLVQEAYGSDPIRAACGASILGHAGTLEADMAAAAEARGVADVDPASLARHTQAVLQGAFILAKAGGGAAAVEEALDHLKRYLRLLFANPGASGA | failed
4 | MTTHDRVRLQLQALEALLREHQHWRNDEPQPHQFNSTQPFFMDTMEPLEWLQWGLIPRMHDLLNNNQPLPGAFAVAPYYEMALATDHPQRALILAELEKLDALFADDASLEHHHHHH | failed
5 | MTTIALLGNPNVGKTTLFNALTGSNQHVGNWPGVTVDKKEGFFNSNKIVDLPGIYALDTFSNEEKVSKKFLESGDVDLILNIVDASNLDRNLYLTMQLKDFKKPIVLLLNMNDIAEKKGIKIDPKKLEKAFNLKVIPITASKKEGLDEVKEFLNKGNFEKYLDKNTYSFKDEAHTYKFIEDKLSDCFNRSGNSSTTLTDKLDKVFLNPWLAYPLFIALMYFVFQFTFSWVGQPISDALDGFLGDTFMPYLSDLLSGTAPWFQSLLVDGIVAGVGGIIVLLPIILALFLCIAILEDSGYMARVAFLMDKFMRKIGLSGKAFLPMITGFGCTVPAIMSARTLESEKDRKLTALLAPFMSCNARLPVYVIFAGLFFPDNASMVVASLYILGILVAFILGLVFKNTLFKKDEEPFIIELPEYKVPEVRSVLAQLWDKSKSFLKKAGTIIFAMSVVIWFLQSFNFTGMVEDITHSFLYNIGSFIAPIFAPLGFGDWQASVSLLTGLMAKETIISTMEVIYKGDLTHMLPQFFTALSSYSFMVFVLLYTPCISVVGVMKKEYGGKFTVLSVIFQFLVAWISAFIIYHIGLLIF | failed
6 | MTTIYLVRHGQASFGKANYDELSENGQAQATILGQYLKEILKEQPYVIAGTMKRHLQTAQGALKECFPDTHIYTHAGWNEFNHQQVFANYEPRFKQPELLKQDVAKEQNPRAYLAKIFESAISRWTDGEFHHEYEESWPKFKQRVEIALKMLCDELAQTKPRYAVVFTSGGVISVIAGKILELNPNRTFALNWAITNTSLTTLRLVGNEPQLLSLNEHHFIKVVNPALLTWI | failed
7 | MTTKLDQLTSWLKERKITEVECLISDLTGIARGKISPTNKFIAEKGMRLPESVLLQTVTGDYVEDDIYYDLLDPADIDMVCRPDENAVFLVPWAIEPTAMVIHDTFDKLGNPIELSPRNILKRVLKMYADKGWRPIVAPEMEFYLTKRSDDPDYPLQAPVGRSGRQETGRQSFSIDAANEFDPLFEDMYDWCEAQGLDLDTLIHEEGTAQMEINFRHGDALDLADQILVFKRTMREAALKHNVAATFMAKPMTGEPGSAMHLHQSIVDVKTGKNIFSNADGTMSELFLHHIGGLQKFIPEVLPLFAPNVNSFRRFLPDTSAPVNVEWGEENRTVGLRVPDSSPENRRVENRLAGADANPYLALAASLLCGYIGMVEGIKPSAQVKGRGYERRNLRLPLTIEAALERMENCKPLEQYLGSKFISGYVAVKRAEHENFKRVISSWEREFLLLS | failed
8 | MTTLKLFDIEHAWGLPRKVSPRFGARLILRGLHLDYLHDRASFVGEFPPAIKQQFVEAFPAMVKQLERLVATGEIDTTEQHCVSIEHAGFTCEADTLGSHGYLYIAIYQTKAKPLTTSNLTITRLEHHHHHH | failed
9 | MTTLTRQDLNFGQVVADVLSEFLEVAVHLILYVREVYPVGIFQKRKKYNVPVQMSCHPELNQYIQDTLHCVKPLLEKNDVEKVVVVILDKEHRPVEKFVFEITQPPLLSINSDSLLSHVEQLLRAFILKISVCDAVLDHNPPGCTFTVLVHTREAATRNMEKIQVIKDFPWILADEQDVHMHDPRLIPLKTMTSDILKMQLYVEERAHKNS | not failed
10 | MTTMQQRYDAVKDAMAQIGRLAAQLDGEALREAIGPVLVALGERDELFPRDEFPIRAGKPGGLYQLWRGESGDLALYASAGKTGKKQPPHDHTTWAVIAGVYGEEHNVFFERTDDGSRAGFGTLRQIDALTVVQGNAARLSGEVFHTIEVVSEEDSLHLHLHLYGRALDTLSGRINFATEEGGAYTRFMAVPETYAPWIAPRDLYEMLTDGGELAILDVRENGVYTQGHLFHAASMPLSVFELRVDDGLPSPHVRIVVIDDADGLAEQAVRLLHQRGYHNVAVLQGGQPGWNAAGLPVYTGVFVPSKAFGEVAEHVYGTPSISAVELDALRRSEEVLVLDSRTEQEFNLMSVPGAYSCPGAELVARALDHAGPIVVNCAGRTRSIIGAQSLRNAGKTDVRALENGTMGQHLAGLPLERGKSASYLDRPVAAGAAQAAQAWALGMSIATLDAGELHDMLSNPYRTTYLFDARDPSCSSRATLPRAVAAPGGQLVQQTDYYAPVRNARIVVFDTDGVQAPMTAGWLHQMGWEVYLHRPEATALVAPPRVEYDDERGVPVEAVAADAVIIDVGDSRTYRAGHLAGAAWAPRSRLPALLAQRKPAGPLLFTCADGRVSRLAAADAAAQGYQAAYLKGGTAALGADRLRGDAPQFLTEAIDVWYRPYDRETGIEEAMHQYLSWETGLLDKVRSDPTVAFRI | failed
11 | MTTMVNVDTLPEYEKSQIKRALELGTVMTVFNARKSTPERRTVQMIMETRQVAWSKTADKIEGFLDIMEIKEIRPGKNSKDFERAKAVRHKAECCFTILYGTQFVLSTLSLATDSKEDAVKWLSGLKILHQEAMSASTPTMIESWLRKQIYSVDQTRRNSISLRELKTILPLVNFKVSGIKFLKDKLVEIGAQKDELSFEQFHLFYKKLMFDQQKSILDEFKKDSSVFILGNTDRPDASAVYLQDFQRFLLHEQQELWAQDLNKVRERMTKFIDDTMRETAEPFLFVDEFLTYLFSRENSIWDEKYDAVDMQDMNNPLSHYWISSSHNTYLTGDQLRSESSTEAYIRCLRAGCRCIELDCWDGPDGKPIIYHGWTRTTKIKFDDVVQAIRDHAFVTSSFPVILSIEEHCSVEQQRHMAKVFKEVLGDMLLTKPTEASADQLPSPSQLREKIIIKHKKLGPKGDVDVNVEDKKDEHKPQGELYMWDSIDQKWTRHYCAIADAKLSFGDDIEQAVEEEPVQDTPPTELHFGEKWFHKKVESRTSAEKLLQEYCAETGAKDGTFLVRESETFPNDYTLSFWRSGRVQHCRIRSTMENGVMKYYLTDNLTFNSIYALIQHYREAHLRCAEFELRLTDPVPNPNPHESKPWYYDSLSRGEAEDMLMRIPRDGAFLIRKREGTNSYAITFRARGKVKHCRINRDGRHFVLGTSAYFESLVELVSYYEKHALYRKMRLRYPVTPELLERYNMERDINSLYDVSRMYVDPSEINPSMPQRTVKALYDYKAKRSDELTFCRGALIHNVSKEPGGWWKGDYGTRIQQYFPSNYVEDISAGDAEEMEKQIIEDNPLGSLCKGILDLNTYNVVKAPQGKNQKAFVFILEPKKQGDPPVEFATDRVEELFEWFQSIREITWKMDTKENNMKYWERNQSIAIELSDLVVYCKPTSKTKDHLENPDFREIRSFVETKADSIVRQKPVDLLRYNQKGLTRVYPKGQRVDSSNYDPFRLWLCGSQMVALNFQTPDKYMQMNHALFSLNGRTGYVLQPESMRSEKYDPMPLESQRKILMTLTVKVLGARHLPKLGRSIACPFVEVEICGAEYDSNKFKTTVVNDNGLSPVWAPTQEKVTFEIYDPNLAFLRFVVYEEDMFSDPNFLAHATYPIKGIKSGFRSVPLKNGYSEDIELASLLVFCEMRPVLESEEELYSSCRQLRRRQEELNNQLFLYDTHQNLRGANRDALVKEFNVNENQLQLYQEKCNRRLREKRVSNSRFYS | not failed
12 | MTTNTIMEQEARTAPQKIAEQLLANDAITESLGSVLREFKPKFVMIVGRGSSDHAGVFAKYLFEIEASIPTFAAAPSVASVYGKTLKLAGGLVIVISQSGRSPDILAQARMAKNAGAFCVALVNDETAPIKDIVDVVIPLRAGEEKAVAATKSYLATLSALLQVAAKWTQNESLVEAVNSLPQALQAAVDAEPQLRAGSLTDVKNLVVLGRGFGYAVSKEIALKLKEVCAIHAEAFSSAEFLHGPVTLVEKKLSILDVCIRDESYGSHVEQIANVKQRGANLIHLHQTSADIHPRIAPLALLQRFYIDVAAVAIALGINPDKPAGLKKVTQTL | not failed
13 | MTTPIRVVVWNEFRHEKKDEQVRAIYPEGMHTVIASYLAEAGFDAATAVLDEPEHGLTDEVLDRCDVLVWWGHIAHDEVKDEVVERVHRRVLEGMGLIVLHSGHFSKIFKKLMGTTCNLKWREADEKERLWVVAPGHPIVEGIGPYIELEQEEMYGEFFDIPEPDETIFISWFEGGEVFRSGCTFTRGKGKIFYFRPGHETYPTYHHPDVLKVIANAVRWAAPVNRGEIVFGNVKPLEPIKAKQGGVTQ | not failed
14 | MTTPVDAPKWPRQIPYIIASEACERFSFYGMRNILTPFLMTALLLSIPEELRGAVAKDVFHSFVIGVYFFPLLGGWIADRFFGKYNTILWLSLIYCVGHAFLAIFEHSVQGFYTGLFLIALGSGGIKPLVSSFMGDQFDQSNKSLAQKAFDMFYFTINFGSFFASLSMPLLLKNFGAAVAFGIPGVLMFVATVFFWLGRKRYIHMPPEPKDPHGFLPVIRSALLTKVEGKGNIGLVLALIGGVSAAYALVNIPTLGIVAGLCCAMVLVMGFVGAGASLQLERARKSHPDAAVDGVRSVLRILVLFALVTPFWSLFDQKASTWILQANDMVKPQWFEPAMMQALNPLLVMLLIPFNNFVLYPAIERMGVKLTALRKMGAGIAITGLSWIVVGTIQLMMDGGSALSIFWQILPYALLTFGEVLVSATGLEFAYSQAPKAMKGTIMSFWTLSVTVGNLWVLLANVSVKSPTVTEQIVQTGMSVTAFQMFFFAGFAILAAIVFALYARSYQMQDHYRQAT | failed
15 | MTTRRLALFDLDHTLLPLDSDYQWADFLARTGRAGDPAEARRRNDDLMERYNRGELTAEQAAEFMLGLLAAHSPVELAAWHEEFMRDVIRPSLTVQAVDVVRGHLAAGDLCALVTATNSFVTAPIARAFGVQHLIATDPEYRDGRYTGRIEGTPSFREGKVVRVNQWLAGMGLALGDFAESYFYSDSVNDVPLLEAVTRPIAANPSPGLREIAQARGWQVIDLFDHLEDAKS | not failed
16 | MTTTFEFLQPRIHGFATCCSSNSLLYSKASRFFNDRCRVYRQNPNRFVSNSITLPLQKKQVTVLRNHERFNLWDGFSRKKSRLVVNCQEDDQNESSSEEEESSQSTPAKSERKREKKEDKVWWSKGKKWQWQPIIQAQGIGVLLLQLSVVMFVMRLLRPGIPLPGSEPRIQTTFVSVPYSEFLSKVNSNQVQKVEVDGVQVLFKLRDDGKWQESETSRLSQSSESLLRTVAPTKRVVYSTTRPGDIKTPYEKMLGNNVEFGSPEKRSGGFFNSALIALFYIAVLAGLIRFPVSFSTSSTGQLRTRKAGGPDGGKVSGGGETITFADVAGVDEAKEELEEIVEFLRNPEKYVRLGARPPRGVLLVGLPGTGKTLLAKAVAGEAEVPFISCSASEFVELYVGMGASRVRDLFARAKKEAPSIIFIDEIDAVAKSRDGKFRMGSNDEREQTLNQLLTEMDGFDSNSAVIVLGATNRADVLDPALRRPGRFDRVVTVETPDKIGRESILRVHVSKKELPLGDDVNLGSIASMTTGFTGADLANLVNEAALLAGRKNKTNVEKIDFIQAVERSIAGIEKKSARLKGNEKAVVARHEAGHAVVGTAVANLLTGQPRVEKLSILPRTGGALGFTYIPPTSEDRYLLFIDELLGRLVTLLGGRAAEEVVYSGRISTGAFDDIRRATDMAYKAVAEYGLNQKIGPVSVATLSGGGIDDSGGSPWGRDQGKLVDLVQKEVTILLQSALDVALSVVRANPDVLEGLGAQLEEKEKVEGEELQKWLSMVVAPEELAVFVEGKQELLLPAQASSS | failed
17 | MTTTIHMLTIIILCGIVTWLTRIIPFVMISKVHLSERVVKWLSFIPITLFTALIIDGVLVQQEGVMGYTINMPFLITMIPTIVVAIVSRSLTITILSGIIIMALLRWVF | failed

Reference: a protein production outcome set (Wang et al. 2014)
